Source: patent publication US10725049B2, “Methods of detecting and measuring glutamine and analogues thereof, and methods related thereto” (Victoria Link Limited, priority 2013, dated 2020)
Peptide text beside a SMILES is read from it.

Assays:
BpsA [1] = target: T1, BpsA (Streptomyces lavendulae, UniProt Q1MWN4); experiment: BpsA-mediated synthesis of indigoidine-related pigments from glutamine analogues; format: biochemical; settings: 4 mM substrate, 1.66 μM BpsA, 25° C., 72 hours
Procedure: For these experiments, BpsA activation was carried out as noted in Example 1. Pre-activated BpsA was incubated at 25° C. for 72 hours in reaction buffer amended with 4 mM of either L-glutamine, L-glycine-L-glutamine (glycyl glutamine), L-alanine-L-glutamine (alanyl glutamine), N-trifluoracetyl-L-glutamine, or no substrate as a control. Pre-activated and buffered BpsA at a final concentration of 1.66 μM was added to a reaction buffer containing 4 mM of each L-glutamine derivative in a final reaction volume of 1000 μL. This was then incubated al 25° C. for 72 hours. Each reaction tube was centrifuged and the supernatant removed. The indigoidine derivatives were then resuspended in 100 μL of 99.9% DMSO to solubilise the precipitated pigment.
The structures of each substrate and the predicted structure of the cyclised indigoidine-like product potentially produced in each reaction are depicted in FIGS. […]. […] The relative absorbance levels of each reaction at the end of the 72 hour incubation period are illustrated in FIG. 8E.

[2] = BpsA functionality (indigoidine synthesis from L-glutamine) in the presence of DMSO; format: biochemical
Procedure: In these experiments, samples of 500 μM L-glutamine were prepared in ddH2O amended with DMSO to a final DMSO concentration (v/v) of either 0%, 10%, 20%, 30% or 35%. A master mix with final reagent concentrations as indicated in Table 5 was prepared and dispensed into 18 wells of a fresh 96 well plate at a volume of 20 μL per well.
To test whether full L-glutamine conversion had been achieved in the presence of DMSO, 180 μL of DMSO heated to 50° C. was then added to each well to completely solubilise the indigoidine. The 96 well plate was then incubated at room temperature with shaking at 2500 rpm for 10 minutes. Following this, a single A590 reading was taken and the average of the triplicate values were graphed (FIG. 5B).

[3] = Stability of BpsA over time on storage; format: physicochemical; settings: 24 weeks
Procedure: To monitor stability of Bps A over time after storage at these conditions, two BpsA samples were stored, one at 25° C. and one at 4° C. The two samples were then compared to recently purified BpsA. The BpsA stored at 4° C. retained 96% activity and the BpsA stored at 25° C. retained 15% activity after 24 weeks compared to the recently purified BpsA.

BpsA [4] = target: T1, BpsA; experiment: Activation of apo-BpsA to holo-BpsA by PPTase, read out as indigoidine synthesis (A590); format: biochemical; settings: in vitro, purified His6-tagged PPTase
Procedure: Apo-BpsA was converted to holo-BpsA in vitro, post-purification, as follows. Purified BpsA and Sfp were obtained by standard Ni/NTA chromatography following their expression as His6-tagged recombinant polypeptides. The bpsA and sfp genes were cloned into and expressed from plasmid pET28a+ in E. coli BL21 (DE3) cells, as described for BpsA and other PPTases by Owell et al (2011), with the modification that BpsA expression and purification was performed in an entD gene-deleted strain of E.coli BL21(DE3). This was done to avoid any activation of BpsA by endogenous EntD PPTase prior to BpsA purification.
Reagents were added to a 15 ml tube. This was vortexed for two seconds and transferred to a 30° C. shaking incubator (200 rpm) for 20 minutes to enable 4′-PP attachment to occur. A negative control was set up in the same manner, omitting Sfp and adding 88.16 μL of ddH2O instead of 84.48 μL of ddH2O.
Indigoidine synthesis reactions were performed in triplicate in a 96 well plate to assess whether activated BpsA was generated. For these reactions, 50 μL of 50 mM Tris-HCl, 10 mM MgCl2 in ddH2O was added to each of six wells. […] The 96 well plate was shaken at 1000 rpm and the A590 values (absorbance at 590 nm) were recorded for each well every twenty seconds for 60 minutes. […]

| Molecule | Pigment formation by pre-activated BpsA from the substrate (BpsA [1]) | Ability of PPTase to activate BpsA (BpsA [4]) | further results |
| --- | --- | --- | --- |
| NC(=O)CC[C@H](NC(=O)C(F)(F)F)C(=O)O [N-trifluoroacetyl-L-glutamine] | used to produce indigoidine-like pigments |  |  |
| C[C@H](N)C(=O)N[C@@H](CCC(N)=O)C(=O)O [alanyl glutamine, L-alanine-L-glutamine] (H-Ala-Gln-OH) | used to produce indigoidine-like pigments |  |  |
| NCC(=O)N[C@@H](CCC(N)=O)C(=O)O [glycyl-glutamine, L-glycine-L-glutamine] (H-Gly-Gln-OH) | used to produce indigoidine-like pigments |  |  |
| BpsA: single module non-ribosomal peptide synthetase from Streptomyces lavendulae, SEQ ID NO:2 (protein, listed as Streptomyces lavendulae) MTLQETSVLEPTLQGTTTLPGLLAQRVAEHPEAIAVAYRDDKLTFRELASRSAALADYLEHLGVSADDCVGLFVEPSIDLMVGAWGILNAGAAYLPLSPEYPEDRLRYMIENSETKIILAQQRLVSRLRELAPKDVTIVTLRESEAFVRPEGTEAPAARSARPDTLAYVIYTSGSTGKPKGVMIEHRSIVNQLGWLRETYAIDRSKVILQKTPMSFDAAQWEILSPANGATVVMGAPGVYADPEGLIETIVKHNVTTLQCVPTLLQGLIDTEKFPECVSLQQIFSGGEALSRLLAIQTTQEMPGRALINVYGPTETTINSSSFPVDPADLDEGPQSISIGSPVHGTTYHILDKETLKPVGVGEIGELYIGGIQLARGYLHRDDLTAERFLEIELEEGAEPVRLYKTGDLGQWNNDGTVQFAGRADNQVKLRGYRVELDEISLAIENHDWVRNAAVIVKNDGRTGFQNLIACIELSEKEAALMDQGNHGSHHASKKSKLQVKAQLSNPGLRDDAELAARPAFDLEGAEPTPEQRARVFARKTYRFYEGGAVTQADLLGLLGATVTAGYSRKAADLAPAELGQILRWFGQYISEERLLPKYGYASPGALYATQMYFELEGVGGLKPGYYYYQPVRHQLVLISEREATGKATAQIHFIGKKSGIEPVYKNNILEVLEIETGHMVGLFEQILPAYGLDIHDRAYEPAVKDLLDVADEDYYLGTFELVPHAGARDDQAEVYVQTHGGKVAGLPEGQYRYENGELTRFSDDIVLKKHVIAINQSVYQAASFGISVYSRAEEEWLKYITLGKKLQHLMMNGLNLGFMSSGYSSKTGNPLPASRRMDAVLGANGVDSAPMYFFVGGRISDEQIGHEGMREDSVHMRGPAELIRDDLVSFLPDYMIPNRVVVFDRLPLSANGKIDVKALAASDQVNAELVERPFVAPRTETEKEIAAVWEKALRRENASVQDDFFESGGNSLIAVGLVRELNARLGVSLPLQSVLESPTIEKLARRLEREVAQESSRFVRLHAETGKARPVICWPGLGGYPMNLRSLAGEIGLGRSFYGVQSYGINEGETPYETITEMAKKDIEALKEIQPAGPYTLWGYSFGARVAFETAYQLEQAGEKVDNLFLIAPGSPKVRAENGKVWGREASFANRGYTTILFSVFTGTISGPDLDRCLETVTDEASFAEFISELKGIDVDLARRIISVVGQTYEFEYSFHELAERTLQAPISIFKAVGDDYSFLENSSGYSAEPPTVIDLDADHYSLLREDIGELVKHIRYLLGE |  |  | BpsA activity in the presence of DMSO ([2]; 0-35% DMSO v/v, end-point A590 after full solubilisation): impaired at all concentrations of DMSO; DMSO concentration up to which BpsA retains partial functionality ([2]; 500 μM L-glutamine, DMSO v/v): up to 35%; Activity retained compared to recently purified BpsA ([3]; stored at 4° C.): 96%; Activity retained compared to recently purified BpsA ([3]; stored at 25° C.): 15% |
| Sfp: PPTase from Bacillus subtilis (protein, left off: small tags and cut ends, PPTase from Bacillus subtilis) MKIYGIYMDRPLSQEENERFMSFISPEKREKCRRFYHKEDAHRTLLGDVLVRSVISRQYQLDKSDIRFSTQEYGKPCIPDLPDAHFNISHSGRWVICAFDSQPIGIDIEKTKPISLEIAKRFFSKTEYSDLLAKDKDEQTDYFYHLWSMKESFIKQEGKGLSLPLDSFSVRLHQDGQVSIELPDSHSPCYIKTYEVDPGYKMAVCAAHPDFPEDITMVSYEELL |  | effective means of pre-activating BpsA |  |
| PptT: PPTase from Mycobacterium tuberculosis (protein, left off: small tags and cut ends, PPTase from Mycobacterium tuberculosis) MTVGTLVASVLPATVFEDLAYAELYSDPPGLTPLPEEAPLIARSVAKRRNEFITVRHCARIALDQLGVPPAPILKGDKGEPCWPDGMVGSLTHCAGYRGAVVGRRDAVRSVGIDAEPHDVLPNGVLDAISLPAERADMPRTMPAALHWDRILFCAKEATYKAWFPLTKRWLGFEDAHITFETDSTGWTGRFVSRILIDGSTLSGPPLTTLRGRWSVERGLVLTAIVL |  | similarly able to activate BpsA |  |
